Where “and” joins values, the source holds several entries; their conditions need not be identical. Identical values can stand only once.
Columns and labels:
[1] = molecular target: Hepatitis B Virus (HBV) capsid (core) protein Cp183, adyw wildtype (Hepatitis B Virus, adyw); experiment: negative-stain electron microscopy
[2] = molecular target: Hepatitis B Virus (HBV) capsid protein Cp183-EEE (S155E/S162E/S170E) (Hepatitis B Virus, adyw); experiment: negative-stain electron microscopy
SEC-MALS = molecular target: the molecule itself; experiment: SEC-MALS

Q: “Hepatitis B Virus (HBV) capsid (core) protein Cp183, adyw wildtype (natural protein)” was tested. Which stoichiometry N [1] did it give?
A: 240 and 180

Q: Which stoichiometry N [2] does the source give for “Hepatitis B Virus (HBV) capsid protein Cp183-EEE (S155E/S162E/S170E) (natural protein)” here?
A: 240 and 180

B1: Brome Mosaic Virus (BMV) capsid protein (natural protein)
chain: MSTSGTGKMTRAQRRAAARRNRWTARVQPVIVEPLAAGQGKAIKAIAGYSISKWEASSDAITAKATNAMSITLPHELSSEKNKELKVGRVLLWLGLLPSVAGRIKACVAEKQAQAEAAFQVALAVADSSKEVVAAMYTDAFRGATLGDLLNLQIYLYASEAVPAKAVVVHLEVEHVRPTFDDFFTPVYR
Q: Which “stoichiometry N” value (SEC-MALS) does the source give for B1 here?
A: 180

From paper PMC2964155 (Virology, 2010)
